Data on nine molecules can be found in US11535650 (RA PHARMACEUTICALS, dated 2022).

Starred links: 1 amine or outer side, 2 acyl side, 3 side chain; linkers in the order of their positions; H or OH if unused. Positions of bridges follow the written chain, without caps; N, C: chain ends. Non-standard residues stand in square brackets, D forms with d. No end group written: not given here. mXylyl = bridging moiety between residues (mXylyl(i,j)); Trp(7-aza) = N[C@@H](Cc1c[nH]c2ncccc12)C(=O)O; pXylylene = c1cc(C[*:2])ccc1C[*:1]; Phg = N[C@H](C(=O)O)c1ccccc1; Tle = CC(C)(C)[C@H](N)C(=O)O; NMeS = CN[C@@H](CO)C(=O)O; Nva = CCC[C@H](N)C(=O)O Some results are limits rather than exact numbers.

In assay [1] the target is T1, human C5 protein (human, UniProt P01031 19-673; P01031 678-1676). In words: cell-based or functional assay.
In assay [2] the target is T1, human C5 protein. In words: competitive fluorescence polarization vs probe R3076, Exp 1. How it is done:
(§1) Test articles listed in Table 7 were subsequently diluted in DMSO then assay buffer, comprising 10 2-fold dilutions and were then added to the assay plate in triplicate, rapidly. The assay plate was then incubated in the Paradigm (Molecular Devices, Sunnyvale, Calif.) plate reader for 60 minutes at 25° C.
(§2) After incubation for 60 minutes, the plate was read using the Paradigm FP protocol (Molecular Devices, Sunnyvale, Calif.) and raw polarization values were imported into Graphpad Prism.
In general terms: Fluorescence polarisation rises when a labelled molecule tumbles more slowly, as on binding a larger partner.

The target in assay [3] is T1, human C5 protein. Put plainly: competitive fluorescence polarization vs probe R3076, Exp 2. How it is done:
as §1, §2

The target of assay [4] is T1, human C5 protein. In words: competitive fluorescence polarization vs probe R3076, average of two experiments. As for the experimental part: as §1, §2
For assay [5], the target named is T1, human C5 protein. In words: cell-based or functional assay. The source holds these as a separate data set.
Assay [6] has as its target T1, human C5 protein. Put plainly: fluorescence polarization, 25 nM R3076 with increasing concentrations of C5, average of 10 to 60 minutes. How it is done:
Polarization was measured over time, until binding reached equilibrium. K_D was determined using Graphpad Prism (using "Saturating Binding Curves, One Site—Specific Binding With Hill Slope" as the curve fit to determine K_D).

B1: R3014 (peptide)
peptide: Ac-C[Phg]T[Trp(7-aza)]EY[NMeS]HC[Nva]P[Nva]-NH2
modifications: linker 1-9 via mXylyl
For orientation: IC50 means the point on the concentration scale where inhibition reaches its midpoint. Usually Ki stands for a measure of affinity in units of concentration, obtained from inhibition or displacement. A lower Ki goes with tighter binding. With B1, the “Avg. IC50, human hemolysis assay (complete human sera)” value (“Avg. IC50, human hemolysis assay” for short) with human C5 protein [1] was determined as 1420 nM. Moreover, the half-inhibitory concentration (IC50) in the assay with human C5 protein [2] came out at 6060 nM; with human C5 protein [3], 7580 nM; with human C5 protein [4], 6820 nM. Also, the Ki amounted to 1400 nM in the assay with human C5 protein [2], 1580 nM in the assay with human C5 protein [3] and 1500 nM with human C5 protein [4].

B2: R3008 (peptide)
peptide: Ac-[Nva]C[Phg]T[Trp(7-aza)]EY[NMeS]HC[Nva]P[Nva]-NH2
modifications: linker 2-10 via mXylyl
Consider B2, for which, in the assay with human C5 protein [5], the “IC50, C5a EIA on supernatant of human RBC hemolysis assay” value turned out to be 54.5 nM and the “IC50, membrane attack complex (MAC) EIA on supernatant of human RBC hemolysis assay” value turned out to be 33 nM. Further, in the assay with human C5 protein [1], the “Avg. IC50, human hemolysis assay” value came out at 97 nM.

B3: R3003 (peptide)
peptide: Ac-[Nva]CYEN[Tle]Y[Trp(7-aza)]EYP[Phg]P-NH2
SMILES: CCC[C@H](NC(C)=O)C(=O)N[C@@H](CS)C(=O)N[C@@H](Cc1ccc(O)cc1)C(=O)N[C@@H](CCC(=O)O)C(=O)N[C@@H](CC(N)=O)C(=O)N[C@H](C(=O)N[C@@H](Cc1ccc(O)cc1)C(=O)N[C@@H](Cc1c[nH]c2ncccc12)C(=O)N[C@@H](CCC(=O)O)C(=O)N[C@@H](Cc1ccc(O)cc1)C(=O)N1CCC[C@H]1C(=O)N[C@H](C(=O)N1CCC[C@H]1C(N)=O)c1ccccc1)C(C)(C)C
With B3, the “Avg. IC50, human hemolysis assay” value with human C5 protein [1] is 13.9 nM. For the same molecule, the IC50 with human C5 protein [2] amounted to 72.7 nM; with human C5 protein [3], 64.1 nM; with human C5 protein [4] it was 68.4 nM. Further, the Ki with human C5 protein [2] came out at 10.4 nM; in the assay with human C5 protein [3], 8.69 nM; in the assay with human C5 protein [4], 9.54 nM.

B4: R3023 (peptide)
peptide: Ac-YPYC[Phg][Trp(7-aza)][Tle]E[Nva]NY[Nva]E-NH2
SMILES: CCC[C@H](NC(=O)[C@H](Cc1ccc(O)cc1)NC(=O)[C@H](CC(N)=O)NC(=O)[C@H](CCC)NC(=O)[C@H](CCC(=O)O)NC(=O)[C@@H](NC(=O)[C@H](Cc1c[nH]c2ncccc12)NC(=O)[C@@H](NC(=O)[C@H](CS)NC(=O)[C@H](Cc1ccc(O)cc1)NC(=O)[C@@H]1CCCN1C(=O)[C@H](Cc1ccc(O)cc1)NC(C)=O)c1ccccc1)C(C)(C)C)C(=O)N[C@@H](CCC(=O)O)C(N)=O
notes: negative control in the FP assays; also called control polypeptide; scrambled polypeptide variant of R3002
Regarding B4, in the assay with human C5 protein [1], the “Avg. IC50, human hemolysis assay” value was more than 100000 nM. Further, the IC50 with human C5 protein [2], in the assay with human C5 protein [3] and with human C5 protein [4] was more than 1000 nM throughout. The Ki with human C5 protein [2], with human C5 protein [3] and with human C5 protein [4] was more than 1000 nM each time.

B5: R3011 (peptide)
peptide: Ac-[Nva]C[Phg]T[Trp(7-aza)]EY[NMeS]HC[Nva]P-NH2
modifications: linker 2-10 via mXylyl
As for B5, the “Avg. IC50, human hemolysis assay” value with human C5 protein [1] turned out to be 112 nM. In addition, the IC50 in the assay with human C5 protein [2] amounted to 295 nM; in the assay with human C5 protein [3] it was 261 nM; with human C5 protein [4] it was 278 nM. Moreover, the inhibition constant (Ki) came out at 73.2 nM with human C5 protein [2], 86.9 nM in the assay with human C5 protein [3] and 80 nM with human C5 protein [4].

B6: R3002 (peptide)
peptide: VCYENGYWEYPGV
modifications: Ac-Nvl-C-Y-E-N-Tbg-Y-azaTrp-E-Y-P-Phg-Nvl-NH2
As to B6, the “IC50, C5a EIA on supernatant of human RBC hemolysis assay” value with human C5 protein [5] was found to be 5.4 nM.

B7: R3043 (peptide)
peptide: MCVERFCDVYWE-NH2
modifications: linker 2-7 via mXylyl
As to B7, in the assay with human C5 protein [1], the “Avg. IC50, human hemolysis assay” value amounted to 934 nM. Also, the figures for the IC50 in the assay with human C5 protein [2], with human C5 protein [3] and with human C5 protein [4] were 4330 nM, 4120 nM and 4230 nM, respectively. Also, the values for the Ki with human C5 protein [2], in the assay with human C5 protein [3] and in the assay with human C5 protein [4] were 866 nM, 882 nM and 874 nM, respectively.

B8: R3050 (peptide)
peptide: Ac-[Nva]C[Phg]T[Trp(7-aza)]EY[NMeS]HC[Nva]-NH2
modifications: linker 2-10 via pXylylene
As to B8, in the assay with human C5 protein [1], the “Avg. IC50, human hemolysis assay” value came to 42.9 nM. Besides, the IC50 with human C5 protein [2] was found to be 267 nM; with human C5 protein [3], 293 nM; in the assay with human C5 protein [4] it was 280 nM. The Ki with human C5 protein [2] turned out to be 71.1 nM; in the assay with human C5 protein [3], 57.6 nM; in the assay with human C5 protein [4], 64.3 nM.

B9: R3076 (peptide)
peptide: VVYENGYWEYPGVK
modifications: Ac-Nvl-Nvl-Y-E-N-Tbg-Y-azaTrp-E-Y-P-Chg-Nvl-K-(BODIPY-TMR-X) NH2
notes: R3072 with BODIPY-TMR dye on the C-terminal lysine; fluorescent probe of the FP assay; also called Probe R3076; labeled probe
By Kd is commonly meant the concentration at which binding is half-saturated. A higher Kd goes with weaker binding. Regarding B9, the “Avg. IC50, human hemolysis assay” value with human C5 protein [1] is 297 nM. Also, in the assay with human C5 protein [6], the Kd was found to be 8.07 nM.
